Data published in US20200010571A1 (Janssen / Centocor, published 2020).
Several values for one entry are separate records, joined by “and”; a condition that tells them apart may be missing. Identical values can stand only once.

Tests used:
[1] = biological target: T1, human IL-17A (recombinant) (human, UniProt Q16552 24-155); test: competition ELISA: biotinylated rhIL-17A binding to plate-coated rhIL-17RA-Fc; Experiment 1; 95% CI 0.1171-0.1378
T1 construct: Biotinylated in the IL-17RA ELISA; also called rhIL-17A

cynomolgus IL-17A [2] = biological target: T2, cynomolgus IL-17A (cynomolgus, UniProt Q16552 24-155 (human entry), limits assumed); test: SPR (Biacore 3000), mAb captured by anti-IgG Fc, antigen in solution, 1:1 Langmuir;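 also: run in PBS containing BSA and P20 at 25 °C, antigen injected at four dilutions, 3 min association, dissociation followed 20 min to 2 h, two independent experiments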
T2 construct: also called Cyno IL-17A
T2 chain: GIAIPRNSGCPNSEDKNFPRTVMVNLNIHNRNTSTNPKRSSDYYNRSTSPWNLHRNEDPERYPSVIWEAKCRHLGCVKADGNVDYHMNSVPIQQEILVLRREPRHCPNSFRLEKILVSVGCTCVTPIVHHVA

rat IL-17A = biological target: T3, rat IL-17A (rat, UniProt Q61453 18-150); test: as above
T3 chain: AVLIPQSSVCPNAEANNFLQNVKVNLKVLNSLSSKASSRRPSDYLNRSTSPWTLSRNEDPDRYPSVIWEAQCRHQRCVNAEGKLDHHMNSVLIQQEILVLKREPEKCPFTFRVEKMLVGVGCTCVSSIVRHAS

mouse IL-17A = biological target: T4, mouse IL-17A (mouse, UniProt Q62386 26-158); test: as above
T4 sequence: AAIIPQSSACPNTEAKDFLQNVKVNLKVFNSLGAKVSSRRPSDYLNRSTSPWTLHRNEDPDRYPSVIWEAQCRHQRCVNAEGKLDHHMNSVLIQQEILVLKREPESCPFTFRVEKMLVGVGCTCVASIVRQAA

cynomolgus TNF-α [3] = biological target: T5, cynomolgus TNF-α (cynomolgus, UniProt P79337 77-233); test: cell-based or functional assay
[4] = biological target: T1, human IL-17A (recombinant); test: cell-based or functional assay
[5] = biological target: native (endogenous) human TNF-α (human, UniProt P01375 77-233); test: cell-based or functional assay
rat TNF-α = biological target: T6, rat TNF-α (rat, UniProt P16599 80-235); test: SPR (Biacore 3000), mAb captured by anti-IgG Fc, antigen in solution
T6 sequence: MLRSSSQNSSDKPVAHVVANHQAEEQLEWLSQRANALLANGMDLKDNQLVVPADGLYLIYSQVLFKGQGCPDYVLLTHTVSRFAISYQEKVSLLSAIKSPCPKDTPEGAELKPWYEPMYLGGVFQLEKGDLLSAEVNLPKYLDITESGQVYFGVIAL

mouse TNF-α = biological target: T7, mouse TNF-α (mouse, UniProt P06804 80-235); test: as above
T7 sequence: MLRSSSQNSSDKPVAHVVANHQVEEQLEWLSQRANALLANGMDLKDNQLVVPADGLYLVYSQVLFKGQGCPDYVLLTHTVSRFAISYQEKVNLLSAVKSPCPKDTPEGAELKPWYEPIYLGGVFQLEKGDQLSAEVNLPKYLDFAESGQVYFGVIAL

cynomolgus IL-17A [6] = biological target: T2, cynomolgus IL-17A; test: cell-based or functional assay
[7] = biological target: T1, human IL-17A (recombinant); test: competition ELISA: biotinylated rhIL-17A binding to plate-coated rhIL-17RA-Fc
cynomolgus TNF-α [8] = biological target: T5, cynomolgus TNF-α; test: SPR (Biacore 3000), mAb captured by anti-IgG Fc, antigen in solution, 1:1 Langmuir
[9] = biological target: protease-resistant form of human transmembrane TNF-α (lacks amino acids Val1 to Pro12) overexpressed by K2 … (human, UniProt P01375 1-233); test: cell-based or functional assay
[10] = biological target: T8, rhTNF-α (recombinant human, soluble) (human, UniProt P01375 77-233); test: SPR (Biacore 3000), mAb captured by anti-IgG Fc, antigen in solution, 25 C, 1:1 Langmuir
T8 construct: also called human TNF-α; soluble rhTNF-α

[11] = biological target: T1, human IL-17A (recombinant); test: competition ELISA: biotinylated rhIL-17A binding to plate-coated rhIL-17RA-Fc; Experiment 3; 95% CI 0.2415-0.2667
[12] = biological target: T1, human IL-17A (recombinant); test: SPR (Biacore 3000), mAb captured by anti-IgG Fc, antigen in solution, 25 C, 1:1 Langmuir
[13] = biological target: T8, rhTNF-α (recombinant human, soluble); test: cell-based or functional assay
[14] = biological target: T1, human IL-17A (recombinant); test: cell-based or functional assay; remark: listed apart in the source
cynomolgus IL-17A [15] = biological target: T2, cynomolgus IL-17A; test: cell-based or functional assay
[16] = biological target: T1, human IL-17A (recombinant); test: competition ELISA: biotinylated rhIL-17A binding to plate-coated rhIL-17RA-Fc; Experiment 2; 95% CI 0.1639-0.1853
[17] = biological target: T9, recombinant human IL-17A/F heterodimer (human, UniProt Q16552 24-155; Q96PD4 31-163); test: cell-based or functional assay
[18] = biological target: T9, recombinant human IL-17A/F heterodimer; test: cell-based or functional assay; remark: listed apart in the source
recombinant human IL-17F = biological target: T10, recombinant human IL-17F (human, UniProt Q96PD4 31-163); test: binding to rhIL-17A in the absence or presence of IL-17F
T10 sequence: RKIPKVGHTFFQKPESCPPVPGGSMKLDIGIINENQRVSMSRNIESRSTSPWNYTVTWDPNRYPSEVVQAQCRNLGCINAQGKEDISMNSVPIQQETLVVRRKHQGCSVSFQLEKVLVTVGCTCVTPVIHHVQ

[19] = biological target: T8, rhTNF-α (recombinant human, soluble); test: cell-based or functional assay; remark: listed apart in the source
[20] = biological target: T8, rhTNF-α (recombinant human, soluble); test: cell-based or functional assay; remark: listed apart in the source

IC50 [1]: 0.127 µg/mL | Kd (cynomolgus IL-17A [2]): 26.5 pM and 27.7 pM | koff (cynomolgus IL-17A [2]): 3.59e-05 s⁻¹ and 4.4e-05 s⁻¹ | kon (cynomolgus IL-17A [2]): 1.35e+06 M⁻¹ s⁻¹ and 1.59e+06 M⁻¹ s⁻¹ | Kd (rat IL-17A): 13900 pM | koff (rat IL-17A): 0.00274 s⁻¹ | kon (rat IL-17A): 197000 M⁻¹ s⁻¹ | Kd (mouse IL-17A): 1010 pM | koff (mouse IL-17A): 0.00101 s⁻¹ | kon (mouse IL-17A): 999000 M⁻¹ s⁻¹ | IC50 (µg/mL); Inhibition of native IL-17A mediated IL-6 production by NHDF; Experiment 1 [4]: 0.0478 µg/mL | IC50 (µg/mL); Inhibition of native IL-17A mediated IL-6 production by NHDF; Experiment 2 [4]: 0.038 µg/mL | IC50 (µg/mL); Inhibition of native IL-17A mediated IL-6 production by NHDF; Experiment 3 [4]: 0.0608 µg/mL | binding result (rat TNF-α): no binding (tested: up to 100 nM) | binding result (mouse TNF-α): no binding (tested: up to 100 nM) | IC50 (µg/mL); Inhibition of cyno IL-17A mediated IL-6 production by NHDF; Experiment 3 (cynomolgus IL-17A [6]): 0.0476 µg/mL | fold IC50 against the parental anti-IL-17A antibodies mAb 4782 and mAb 7206 [7]: ~3 fold | Kd (cynomolgus TNF-α [8]): 440 pM and 160 pM | koff (cynomolgus TNF-α [8]): 0.000114 s⁻¹ | kon (cynomolgus TNF-α [8]): 259000 M⁻¹ s⁻¹ and 710000 M⁻¹ s⁻¹ | Kd [10]: 23.2 pM and 19.2 pM | koff [10]: 4.07e-05 s⁻¹ and 3.76e-05 s⁻¹ | kon [10]: 1.75e+06 M⁻¹ s⁻¹ and 1.96e+06 M⁻¹ s⁻¹ | IC50 [11]: 0.254 µg/mL | Kd [12]: 24.4 pM and 38.9 pM | koff [12]: 4.36e-05 s⁻¹ and 3.74e-05 s⁻¹ | kon [12]: 1.78e+06 M⁻¹ s⁻¹ and 961000 M⁻¹ s⁻¹ | IC50 (µg/mL); Inhibition of native IL-17A mediated GROα production by NHDF; Experiment 1 [14]: 0.0755 µg/mL | IC50 (µg/mL); Inhibition of native IL-17A mediated GROα production by NHDF; Experiment 2 [14]: 0.0692 µg/mL | IC50 (µg/mL); Inhibition of native IL-17A mediated GROα production by NHDF; Experiment 3 [14]: 0.0653 µg/mL | IC50 (µg/mL); Inhibition of cyno IL-17A mediated GROα production by NHDF; Experiment 3 (cynomolgus IL-17A [15]): 0.142 µg/mL | IC50 [16]: 0.174 µg/mL | IC50 (µg/mL); Inhibition of IL-17A/F mediated GROα production by NHDF; Experiment 1 [17]: 0.283 µg/mL | IC50 (µg/mL); Inhibition of IL-17A/F mediated GROα production by NHDF; Experiment 2 [17]: 0.46 µg/mL | IC50 (µg/mL); Inhibition of IL-17A/F mediated GROα production by NHDF; Experiment 3 [17]: 0.435 µg/mL | IC50 (µg/mL); Inhibition of IL-17A/F mediated IL-6 production by NHDF; Experiment 1 [18]: 0.117 µg/mL | IC50 (µg/mL); Inhibition of IL-17A/F mediated IL-6 production by NHDF; Experiment 2 [18]: 0.133 µg/mL | IC50 (µg/mL); Inhibition of IL-17A/F mediated IL-6 production by NHDF; Experiment 3 [18]: 0.102 µg/mL | binding result (recombinant human IL-17F): no binding
B1: mAb 8759 (bispecific anti-TNF-α/IL-17A antibody, IgG1, YTE) (bispecific antibody)
heavy 1: not shown
light 1: not shown
heavy 2: QVQLLESGGGLVQPGGSLRLSCAASGFTFSSYAMSWVRQAPGKGLEWVSTISLTSGFTYYADSVKGRFTISRDNSKNTLYLQMNSLRAEDTAVYYCARQLTLDVWGQGTLVTVSSASTKGPSVFPLAPSSKSTSGGTAALGCLVKDYFPEPVTVSWNSGALTSGVHTFPAVLQSSGLYSLSSVVTVPSSSLGTQTYICNVNHKPSNTKVDKKVEPKSCDKTHTCPPCPAPELLGGPSVFLFPPKPKDTLYITREPEVTCVVVDVSHEDPEVKFNWYVDGVEVHNAKTKPREEQYNSTYRVVSVLTVLHQDWLNGKEYKCKVSNKALPAPIEKTISKAKGQPREPQVYTLPPSREEMTKNQVSLTCLVKGFYPSDIAVEWESNGQPENNYKTTPPVLDSDGSFLLYSKLTVDKSRWQQGNVFSCSVMHEALHNHYTQKSLSLSPGK
light 2: QSVLTQPPSVSVAPGQTARISCSGDNLGDKYANWYQQKPGQAPVLVIYDDIDRPSGIPERFSGSNSGNTATLTISGTQAEDEADYYCGSYDFFLGMIVFGGGTKLTVLGQPKAAPSVTLFPPSSEELQANKATLVCLISDFYPGAVTVAWKADSSPVKAGVETTTPSKQSNNKYAASSYLSLTPEQWKSHRSYSCQVTHEGSTVEKTVAPTECS
IC50 (nM); Inhibition of cyno TNF-α mediated cytotoxicity in WEHI-164 cells; Experiment 1 (cynomolgus TNF-α [3]): 3.82 nM | IC50 (nM); Inhibition of cyno TNF-α mediated cytotoxicity in WEHI-164 cells; Experiment 2 (cynomolgus TNF-α [3]): 14.9 nM | IC50 (nM); Inhibition of cyno TNF-α mediated cytotoxicity in WEHI-164 cells; Experiment 3 (cynomolgus TNF-α [3]): 7.32 nM | IC50 (nM); KYM-1D4 cells, cytotoxicity mediated by endogenous soluble TNF-α; Experiment 1 [5]: 0.283 nM | IC50 (nM); KYM-1D4 cells, cytotoxicity mediated by endogenous soluble TNF-α; Experiment 2 [5]: 0.294 nM | IC50 (nM); KYM-1D4 cells, cytotoxicity mediated by endogenous soluble TNF-α; Experiment 3 [5]: 0.143 nM | IC50 (nM); KYM-1D4 cells, cytotoxicity mediated by membrane bound human TNF-α; Experiment 1 [9]: 0.653 nM | IC50 (nM); KYM-1D4 cells, cytotoxicity mediated by membrane bound human TNF-α; Experiment 2 [9]: 0.883 nM | IC50 (nM); KYM-1D4 cells, cytotoxicity mediated by membrane bound human TNF-α; Experiment 3 [9]: 0.3 nM | IC50 (nM); WEHI-164 cells cytotoxicity mediated by soluble rhTNF-α; Experiment 1 [13]: 1.2 nM | IC50 (nM); WEHI-164 cells cytotoxicity mediated by soluble rhTNF-α; Experiment 2 [13]: 1.73 nM | IC50 (nM); WEHI-164 cells cytotoxicity mediated by soluble rhTNF-α; Experiment 3 [13]: 0.478 nM | fold of IC50 against the parental anti-TNF-α antibodies mAb 9809 and mAb 6696; rhTNF-α-induced cytotoxicity in WEHI-164 cells [19]: ~3 fold | IC50 (nM); KYM-1D4 cells, cytotoxicity mediated by soluble rhTNF-α; Experiment 1 [20]: 0.13 nM | IC50 (nM); KYM-1D4 cells, cytotoxicity mediated by soluble rhTNF-α; Experiment 2 [20]: 0.261 nM | IC50 (nM); KYM-1D4 cells, cytotoxicity mediated by soluble rhTNF-α; Experiment 3 [20]: 0.147 nM
